Consider two proteins from patent publication US20090053196.

Data set [1] has as its target T1, myc-tagged UFD-2 (^mycUFD-2), Q09349.
T1 chain: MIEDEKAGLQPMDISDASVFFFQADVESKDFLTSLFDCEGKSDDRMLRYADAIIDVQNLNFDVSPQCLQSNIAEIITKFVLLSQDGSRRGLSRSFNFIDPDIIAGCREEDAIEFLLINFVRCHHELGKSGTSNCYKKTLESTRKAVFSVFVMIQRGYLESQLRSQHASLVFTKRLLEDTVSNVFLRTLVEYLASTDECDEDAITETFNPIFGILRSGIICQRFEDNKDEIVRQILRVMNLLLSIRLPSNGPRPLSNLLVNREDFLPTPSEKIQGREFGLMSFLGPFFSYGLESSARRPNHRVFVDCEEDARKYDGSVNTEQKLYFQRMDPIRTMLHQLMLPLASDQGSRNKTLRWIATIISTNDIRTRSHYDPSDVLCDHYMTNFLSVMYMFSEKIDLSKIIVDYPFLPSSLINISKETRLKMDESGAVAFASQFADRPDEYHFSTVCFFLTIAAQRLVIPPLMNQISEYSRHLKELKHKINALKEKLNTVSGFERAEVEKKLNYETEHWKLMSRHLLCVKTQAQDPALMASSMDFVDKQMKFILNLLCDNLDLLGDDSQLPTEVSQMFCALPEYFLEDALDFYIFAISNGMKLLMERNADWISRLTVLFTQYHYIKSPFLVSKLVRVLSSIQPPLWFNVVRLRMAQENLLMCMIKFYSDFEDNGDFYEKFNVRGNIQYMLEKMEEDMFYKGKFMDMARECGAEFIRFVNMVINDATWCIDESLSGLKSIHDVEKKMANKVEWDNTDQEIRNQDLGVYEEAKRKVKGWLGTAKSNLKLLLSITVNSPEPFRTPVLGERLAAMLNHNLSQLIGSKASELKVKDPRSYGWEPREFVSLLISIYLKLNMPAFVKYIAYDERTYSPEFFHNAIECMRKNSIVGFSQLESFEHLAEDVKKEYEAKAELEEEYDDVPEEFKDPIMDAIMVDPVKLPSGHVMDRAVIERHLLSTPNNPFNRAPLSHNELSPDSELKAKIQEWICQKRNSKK

The target in data set [2] is FLAG-tagged UNC-45 (UNC-45^FLAG).

B1: myc-tagged CHN-1 (^mycCHN-1) (protein)
chain: MSSGAEQHNTNGKKCYMNKRYDDAVDHYSKAIKVNPLPKYYQNRAMCYFQLNNLKMTEEDCKRALELSPNEVKPLYFLGNVFLQSKKYSEAISCLSKALYHNAVITNAPDIENALKRARHQKYEEEESKRIVQDVEFHTYLESLIEKDRQENSENPEELQRADMAKKRLTELTLATQEKRQNREVPEMLCGKITLELMKEPVIVPSGITYDREEIVQHLRRIGHFDPVTRKPLTENEIIPNYALKEVIEKFLDDNPWAKYEPGGMV
For B1, the “in vitro multiubiquitylation of UNC-45 with both enzymes present, Western blot” value in data set [1] is “these enzymes together dramatically stimulated the multiubiquitylation reaction, yielding UNC-45 conjugates with significantly longer chains than those conjugated by CHN-1 or UFD-2 alone”. The “in vitro ubiquitylation of UNC-45 (with E1 and the E2 LET-70), Western blot” value in data set [2] was “the addition of full-length CHN-1 proceeds to efficient ubiquitin conjugation. However, the majority of conjugates appeared to contain only one to three ubiquitin moieties”.

B2: myc-tagged UFD-2 (^mycUFD-2) (protein)
chain: T1 chain
In the case of B2, in data set [2], the “in vitro ubiquitylation of UNC-45 (with E1 and the E2 LET-70), Western blot” value was “addition of one to three ubiquitins to the substrate protein UNC-45”.
